Blank lines part the entries; values can stand above or below the binder they belong to.
Columns and labels:
Experiment in all cases: protein array
[1] = molecular target: T1, glycogen phosphorylase L, transcript variant 1 (human, UniProt P06737 2-847)
T1 construct: on protein array; also called PYGL
T1 sequence: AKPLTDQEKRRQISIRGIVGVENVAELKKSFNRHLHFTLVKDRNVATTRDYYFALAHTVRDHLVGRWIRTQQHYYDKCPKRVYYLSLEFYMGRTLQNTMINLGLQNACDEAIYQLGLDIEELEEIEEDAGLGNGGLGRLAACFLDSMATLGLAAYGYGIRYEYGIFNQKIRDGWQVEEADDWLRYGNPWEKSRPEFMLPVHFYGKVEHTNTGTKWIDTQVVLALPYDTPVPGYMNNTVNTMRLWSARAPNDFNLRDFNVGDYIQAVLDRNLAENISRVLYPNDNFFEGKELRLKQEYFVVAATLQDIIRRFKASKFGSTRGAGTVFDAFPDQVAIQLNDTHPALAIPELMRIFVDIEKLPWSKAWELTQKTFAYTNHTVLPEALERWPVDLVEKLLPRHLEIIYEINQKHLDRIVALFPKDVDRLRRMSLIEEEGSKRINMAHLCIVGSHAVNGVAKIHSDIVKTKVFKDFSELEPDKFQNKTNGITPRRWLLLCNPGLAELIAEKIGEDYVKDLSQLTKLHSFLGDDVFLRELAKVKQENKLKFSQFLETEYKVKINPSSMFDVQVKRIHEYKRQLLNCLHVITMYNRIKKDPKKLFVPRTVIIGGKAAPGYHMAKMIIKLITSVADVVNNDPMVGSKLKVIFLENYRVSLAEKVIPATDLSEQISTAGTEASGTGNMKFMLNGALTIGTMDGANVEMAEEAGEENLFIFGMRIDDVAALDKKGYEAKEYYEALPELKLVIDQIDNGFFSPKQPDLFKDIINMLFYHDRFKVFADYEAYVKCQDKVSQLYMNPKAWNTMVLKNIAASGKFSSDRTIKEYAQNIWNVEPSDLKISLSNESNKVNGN

Reticulocalbin 3 = molecular target: T2, Reticulocalbin 3 (human, UniProt Q96D15 21-328)
T2 construct: on protein array; also called RCN3
T2 sequence: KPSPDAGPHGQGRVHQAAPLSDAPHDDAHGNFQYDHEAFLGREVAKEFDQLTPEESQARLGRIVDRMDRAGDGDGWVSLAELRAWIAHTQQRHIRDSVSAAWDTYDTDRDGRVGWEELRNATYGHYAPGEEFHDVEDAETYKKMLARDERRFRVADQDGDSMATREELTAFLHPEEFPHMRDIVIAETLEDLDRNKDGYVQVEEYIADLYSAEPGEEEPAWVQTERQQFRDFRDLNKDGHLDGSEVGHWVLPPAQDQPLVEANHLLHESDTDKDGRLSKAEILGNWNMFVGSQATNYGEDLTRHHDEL

[2] = molecular target: T3, synaptotagmin 12, transcript variant X4 (human, UniProt Q8IV01 1-421)
T3 construct: on protein array; also called SYT12
T3 sequence: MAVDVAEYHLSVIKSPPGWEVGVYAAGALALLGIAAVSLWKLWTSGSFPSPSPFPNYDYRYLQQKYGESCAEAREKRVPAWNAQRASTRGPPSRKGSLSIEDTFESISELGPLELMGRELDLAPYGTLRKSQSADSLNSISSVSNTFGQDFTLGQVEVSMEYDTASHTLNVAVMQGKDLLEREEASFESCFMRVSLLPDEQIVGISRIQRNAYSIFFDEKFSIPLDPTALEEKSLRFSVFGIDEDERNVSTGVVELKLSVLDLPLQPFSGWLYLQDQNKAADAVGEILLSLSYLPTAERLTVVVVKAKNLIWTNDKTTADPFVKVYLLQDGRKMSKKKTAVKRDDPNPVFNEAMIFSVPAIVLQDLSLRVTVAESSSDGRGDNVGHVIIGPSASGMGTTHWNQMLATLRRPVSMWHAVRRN

[3] = molecular target: T4, leucine rich repeat containing 28, transcript variant 1 (human, UniProt Q86X40 1-367)
T4 construct: on protein array; also called LRRC28

[4] = molecular target: T5, homeobox and leucine zipper encoding (human, UniProt Q8IX15 25-550)
T5 construct: on protein array; also called HOMEZ
T5 sequence: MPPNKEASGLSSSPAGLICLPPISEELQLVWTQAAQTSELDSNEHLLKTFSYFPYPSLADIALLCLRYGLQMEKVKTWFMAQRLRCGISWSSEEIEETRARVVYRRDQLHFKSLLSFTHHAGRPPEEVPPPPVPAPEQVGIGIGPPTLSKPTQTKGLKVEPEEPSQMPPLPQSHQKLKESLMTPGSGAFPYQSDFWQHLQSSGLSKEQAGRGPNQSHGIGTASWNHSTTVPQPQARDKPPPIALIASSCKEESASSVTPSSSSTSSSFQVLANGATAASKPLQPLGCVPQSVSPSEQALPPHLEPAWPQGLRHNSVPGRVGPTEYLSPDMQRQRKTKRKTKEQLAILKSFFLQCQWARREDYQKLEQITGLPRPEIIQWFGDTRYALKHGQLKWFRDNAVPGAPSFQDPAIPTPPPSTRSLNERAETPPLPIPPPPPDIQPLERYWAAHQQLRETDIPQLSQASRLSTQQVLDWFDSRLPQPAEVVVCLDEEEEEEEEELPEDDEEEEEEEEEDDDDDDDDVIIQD

[5] = molecular target: T6, BAR/IMD domain containing adaptor protein 2, transcript variant 3 (human, UniProt Q9UQB8 1-511)
T6 construct: on protein array; also called BAIAP2
T6 sequence: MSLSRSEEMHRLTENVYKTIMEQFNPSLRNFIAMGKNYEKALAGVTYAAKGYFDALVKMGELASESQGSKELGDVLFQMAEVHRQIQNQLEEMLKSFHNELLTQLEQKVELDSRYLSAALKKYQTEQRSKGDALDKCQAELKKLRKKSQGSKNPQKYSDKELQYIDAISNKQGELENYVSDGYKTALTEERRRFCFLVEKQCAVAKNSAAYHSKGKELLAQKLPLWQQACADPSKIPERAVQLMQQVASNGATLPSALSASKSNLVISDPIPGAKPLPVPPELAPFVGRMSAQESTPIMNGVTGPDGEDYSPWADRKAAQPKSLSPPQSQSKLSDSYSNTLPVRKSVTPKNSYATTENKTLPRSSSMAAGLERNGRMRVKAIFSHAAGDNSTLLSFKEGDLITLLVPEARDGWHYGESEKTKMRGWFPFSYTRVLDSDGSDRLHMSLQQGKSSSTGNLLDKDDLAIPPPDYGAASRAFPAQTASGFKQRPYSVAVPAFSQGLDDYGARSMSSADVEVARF

[6] = molecular target: T7, growth factor receptor bound protein 2, transcript variant 1 (human, UniProt P62993 1-217)
T7 construct: on protein array; also called GRB2

[7] = molecular target: T8, Atpase secretory pathway ca2+ transporting 1 (human, UniProt P98194 1-909)
T8 construct: on protein array; also called ATP2C1
T8 sequence: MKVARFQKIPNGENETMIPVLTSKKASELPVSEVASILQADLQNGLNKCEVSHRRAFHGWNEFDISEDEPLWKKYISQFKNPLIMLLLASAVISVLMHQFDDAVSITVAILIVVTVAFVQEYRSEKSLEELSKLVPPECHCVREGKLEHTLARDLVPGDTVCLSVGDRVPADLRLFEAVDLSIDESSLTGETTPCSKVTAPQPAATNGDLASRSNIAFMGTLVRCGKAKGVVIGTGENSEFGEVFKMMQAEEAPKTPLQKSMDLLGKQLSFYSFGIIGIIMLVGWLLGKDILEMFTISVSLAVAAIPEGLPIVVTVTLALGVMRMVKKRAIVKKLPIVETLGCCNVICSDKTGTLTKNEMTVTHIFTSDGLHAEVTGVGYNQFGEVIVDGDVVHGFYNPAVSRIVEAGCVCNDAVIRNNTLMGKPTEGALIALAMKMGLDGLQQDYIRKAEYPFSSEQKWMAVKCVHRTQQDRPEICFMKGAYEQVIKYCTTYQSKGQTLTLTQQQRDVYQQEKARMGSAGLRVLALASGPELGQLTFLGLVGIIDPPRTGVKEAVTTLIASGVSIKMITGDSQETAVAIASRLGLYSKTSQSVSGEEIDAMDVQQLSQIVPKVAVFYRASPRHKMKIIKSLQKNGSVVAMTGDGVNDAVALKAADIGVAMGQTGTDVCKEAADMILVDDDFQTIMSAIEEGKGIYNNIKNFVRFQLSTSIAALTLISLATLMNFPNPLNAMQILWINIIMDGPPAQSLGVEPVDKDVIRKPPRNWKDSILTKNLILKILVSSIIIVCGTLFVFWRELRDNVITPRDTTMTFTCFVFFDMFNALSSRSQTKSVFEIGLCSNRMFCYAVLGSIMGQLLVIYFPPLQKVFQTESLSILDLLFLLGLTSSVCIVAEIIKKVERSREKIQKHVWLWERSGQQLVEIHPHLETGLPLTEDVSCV

[8] = molecular target: T9, teashirt zinc finger homeobox 2, transcript variant 1 (human, UniProt Q9NRE2 1-1034)
T9 construct: on protein array; also called TSHZ2
T9 sequence: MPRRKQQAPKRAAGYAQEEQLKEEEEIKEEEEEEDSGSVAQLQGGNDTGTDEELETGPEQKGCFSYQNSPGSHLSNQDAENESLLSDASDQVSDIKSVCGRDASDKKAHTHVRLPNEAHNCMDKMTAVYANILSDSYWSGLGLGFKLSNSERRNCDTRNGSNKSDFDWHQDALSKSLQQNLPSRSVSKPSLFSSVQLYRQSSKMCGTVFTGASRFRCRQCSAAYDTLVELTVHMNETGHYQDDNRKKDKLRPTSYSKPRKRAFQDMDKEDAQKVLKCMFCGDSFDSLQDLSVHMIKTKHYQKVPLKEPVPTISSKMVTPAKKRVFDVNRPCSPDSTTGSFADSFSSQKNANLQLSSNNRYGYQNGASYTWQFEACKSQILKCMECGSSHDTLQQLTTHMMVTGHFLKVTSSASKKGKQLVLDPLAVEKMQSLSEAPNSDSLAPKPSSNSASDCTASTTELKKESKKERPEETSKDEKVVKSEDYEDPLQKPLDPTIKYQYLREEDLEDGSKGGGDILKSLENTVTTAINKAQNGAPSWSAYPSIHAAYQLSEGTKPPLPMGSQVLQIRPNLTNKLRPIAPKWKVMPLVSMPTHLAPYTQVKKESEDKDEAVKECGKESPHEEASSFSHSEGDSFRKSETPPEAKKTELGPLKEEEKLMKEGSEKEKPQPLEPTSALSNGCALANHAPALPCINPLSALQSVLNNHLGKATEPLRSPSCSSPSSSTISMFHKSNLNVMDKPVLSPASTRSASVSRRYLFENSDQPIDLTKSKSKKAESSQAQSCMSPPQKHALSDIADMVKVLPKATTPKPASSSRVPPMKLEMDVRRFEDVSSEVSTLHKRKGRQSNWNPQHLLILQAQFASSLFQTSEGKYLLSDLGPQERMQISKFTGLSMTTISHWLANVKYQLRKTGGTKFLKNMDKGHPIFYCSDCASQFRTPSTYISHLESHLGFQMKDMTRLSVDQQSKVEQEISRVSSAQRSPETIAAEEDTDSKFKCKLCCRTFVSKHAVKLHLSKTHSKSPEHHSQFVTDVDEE

T4 sequence (Q86X40 whole entry, change not shown): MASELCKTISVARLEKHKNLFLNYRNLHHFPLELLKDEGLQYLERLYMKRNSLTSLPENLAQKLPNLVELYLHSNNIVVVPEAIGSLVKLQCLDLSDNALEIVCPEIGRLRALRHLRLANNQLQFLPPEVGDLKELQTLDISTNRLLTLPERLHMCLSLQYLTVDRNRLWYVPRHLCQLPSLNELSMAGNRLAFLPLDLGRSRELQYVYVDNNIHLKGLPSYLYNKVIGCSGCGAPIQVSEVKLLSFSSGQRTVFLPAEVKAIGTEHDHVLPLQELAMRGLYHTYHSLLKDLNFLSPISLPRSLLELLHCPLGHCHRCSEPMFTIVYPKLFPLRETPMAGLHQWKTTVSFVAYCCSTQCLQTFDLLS

binding result [6]: binds
B4: TCOL1009 (antibody, V domains shown)
VH: PVQLVQSGAEVKKPGASVKVSCKASGDTFPNYVISWVRQAPGQGLEWVGCINTNNGKTNYVQKLQGRVILTTDTSTNTANMELRSLRFDDTAVYYCARERGQVRSYGMDVWGQGTAVTVSS
VL: PYELTQPPSVSVSPGQTANITCSGDKLGDICVCWYQQKPGQSPVLVIYQHNKRPSGIPERFSGSNSGNTATLTISATQATDEAIYYCQSWDSSSVLFGGGTKLTVLG
notes: VH/VL only

binding result [7]: binds
binding result [8]: binds
B5: TESO1006 (antibody, V domains shown)
VH: QLHLQESGPGLVKPSETLSLTCTVSGGSVSSSSYYWGWVRQPPGKGLEWIGHVYYSGRTYYNPSLKSRATISLDTSKNQFSLKLSSLTATDTAVYYCATIVAAYSYGFEFDPWGQGILVIVSS
VL: QSVLTQPPSVSAAPGQKVTISCSGGSSNIGNNYVSWYQQLPGTAPKLIIYDNDKRPAGIPDRFSGSKSGSSATLGITGLQNGDEAEYYCGTWDSSLGGGVFGGGTKVTVLG
notes: VH/VL only

Second part, the binder before the results:

B1: TBLA1007 (antibody, V domains shown)
VH: QVQLVQSGAEVKKPGASVKVSCKASGYTFTNYGFSWVRQAPGQGLEWMGRITTYNRDTIYAQKFQGRVTMTTDTSTSTAYMELRSLRSDDTAVYFCARVVPGDSVYGAFDIWGQGTMVTVSS
VL: DIQMTQSPSSLSASVGDRVTITCRASQSISSYLNWYQQKPGRAPRLLIYAASRLQIGVPSRFSGSGSGTDFTLTISSLQPEDFATYYCQQSYRMPCSFGQGTKLEI
notes: VH/VL only
binding result [1]: binds
binding result (Reticulocalbin 3): binds
binding result [2]: binds

B2: TESO1003 (antibody, V domains shown)
VH: QVQLVESGGGVVQPGRSLRLSCAASGFTFSNYDMHWVRQAPGKGLEWVTVVSYDGTNKYYAESVQGRFTISRDNSKNTLYLQMNSLRTEDTAVYYCAKEGGWGNTVTTSYYYYGMDVWGQGTTVTVSS
VL: QIVLTQSPATLSLSPGERATLSCRASQSVSNYLAWYQQKPGQAPRLLIYDASNRATGIPARFSGSGSGTDFTLTISSLEPEDFAVYYCQQRSNWPPYTFGQGTKLDIKR
notes: VH/VL only
binding result [3]: binds

B3: TCOL1006 (antibody, V domains shown)
VH: EVQLVESGGGLVQPGGSLRLSCAASGFPPRSFAMSWVRQAPGKGLEWVSSISGLGNSIYYAESVKGRFITSRDNSKSTVFLLMNSLRAEDTAVYYCAKSAFGGVPDGFDIWGQGTMVTVSS
VL: QSVVTQPPSASGPPGQTVTISCSGGRSNVASHAVHWYQHLPGTAPKLLIYNDHQRPSGVPDRFSGSKSGPSASLAISGLRSEDEADYYCATWDDSLGGRVVFGGGTKLTVLG
notes: VH/VL only
binding result [4]: binds
binding result [5]: binds
